Measurements taken from publication doi:10.1101/613059.

Target: T1, Elav (Drosophila melanogaster (w1118), UniProt P16914 1-483)
T1 sequence: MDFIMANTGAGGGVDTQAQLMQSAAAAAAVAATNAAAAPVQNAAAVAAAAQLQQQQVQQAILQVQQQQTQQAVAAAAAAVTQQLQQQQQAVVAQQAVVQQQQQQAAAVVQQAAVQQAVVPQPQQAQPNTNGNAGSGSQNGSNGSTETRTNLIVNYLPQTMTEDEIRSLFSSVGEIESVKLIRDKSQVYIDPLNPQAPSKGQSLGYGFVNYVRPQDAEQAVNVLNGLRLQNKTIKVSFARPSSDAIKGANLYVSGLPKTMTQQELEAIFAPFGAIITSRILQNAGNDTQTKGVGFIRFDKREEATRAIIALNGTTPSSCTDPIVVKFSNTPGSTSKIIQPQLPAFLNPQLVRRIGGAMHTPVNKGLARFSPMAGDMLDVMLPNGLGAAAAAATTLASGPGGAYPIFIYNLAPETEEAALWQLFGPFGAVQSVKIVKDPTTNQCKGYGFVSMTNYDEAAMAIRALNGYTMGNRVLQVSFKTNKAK
Test: EMSA

UGUGUAAGUGAGUACGGUCGCUGUGGUGUGAUGAUGGGUGUGG (ssRNA, U to G substitutions disrupting U-rich stretches) [Dscam1 EBS mutant probe]
binding result: no binding
